{"source": "paper PMC8068247", "about": "“Innovative and Highly Sensitive Detection of Clostridium perfringens Enterotoxin Based on Receptor Interaction and Monoclonal Antibodies” (Toxins, 2021)", "key": {"[1]": {"target": "Clostridium perfringens enterotoxin (CPE) (Clostridium perfringens) (UniProt P01558)", "details": "cited from earlier work"}, "[2]": {"target": "Clostridium perfringens enterotoxin (CPE) (Clostridium perfringens) (UniProt P01558)", "details": "cited from earlier work", "remark": "listed apart in the source"}, "[3]": {"target": "T1, recombinant Clostridium perfringens enterotoxin (CPE) (aa 26–319, wild type) (Clostridium perfringens, UniProt P01558 26-319)", "T1 construct": "also called CPE 26–319; holo-CPE", "T1 sequence": "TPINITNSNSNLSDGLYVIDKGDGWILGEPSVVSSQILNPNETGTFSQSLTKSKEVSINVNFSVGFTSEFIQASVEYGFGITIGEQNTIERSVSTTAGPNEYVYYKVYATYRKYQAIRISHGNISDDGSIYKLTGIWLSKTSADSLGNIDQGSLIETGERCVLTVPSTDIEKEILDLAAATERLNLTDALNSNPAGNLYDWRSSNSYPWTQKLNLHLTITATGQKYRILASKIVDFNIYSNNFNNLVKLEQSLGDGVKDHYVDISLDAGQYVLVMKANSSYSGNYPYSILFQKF", "experiment": "SPR; […], multi-cycle, 120 s association, 1200 s dissociation; HBS-EP+ pH 7.4, 25 °C; Biacore T200; 1:1 Langmuir fit", "details": "both partners purified"}}, "note": "Where two headings read alike, the source gives them in different places."}
{"molecule": "claudin-4 (from UniProt O14493)", "values": [{"measurement": "Kd", "setting": "[1]", "value": 3.4, "unit": "nM"}]}
{"molecule": "claudin-4 (from UniProt O35054)", "values": [{"measurement": "Kd", "setting": "[2]", "value": 9, "unit": "nM"}]}
{"molecule": "GST human claudin-4 fusion protein (GST-ShCLDN4H8) (receptor) MASMGLQVMGIALAVLGWLAVMLCCALPMWRVTAFIGSNIVTSQTIWEGLWMNCVVQSTGQMQCKVYDSLLALPQDLQAARALVIISIIVAALGVLLSVVGGKCTNCLEDESAKAKTMIVAGVVFLLAGLMVIVPVSWTAHNIIQDFYNPLVASGQKREMGASLYVGWAASGLLLLGGGLLCCNCPPRTDKPYSAKYSAARSAAASNYV", "values": [{"measurement": "Kd", "setting": "[3]", "value": 0.38, "unit": "nM"}, {"measurement": "koff", "setting": "[3]", "value": 0.00021, "unit": "s⁻¹"}, {"measurement": "kon", "setting": "[3]", "value": 560000, "unit": "M⁻¹ s⁻¹"}]}
